Assay results taken from patent US7893027B2, “Treatment of ocular wounds and ulcers” (The Board of Regents of the University of Oklahoma, priority 2002, dated 2011).

How the values were obtained:
[1] = system: human corneal epithelial cells (HCEC); test: Modified Boyden chamber chemotaxis / checkerboard assay; assay type: cell-based; conditions: for Number of cells migrated: 4 hr
Procedure: Human corneal epithelial cells were cultured in basic medium overnight, detached using trypsin-EDTA as described above and resuspended at a final concentration of 8×10^5 cells/ml. Chemotaxis assays were performed using the modified Boyden chamber assay described previously (13). Briefly, 200 (μl of cell suspension was added to the upper chamber and chemoattractants including recombinant CAP37 (10-2000 ng/ml) and the positive control recombinant human Platelet Derived Growth Factor-BB (PDGF-BB, 10 ng/ml, Collaborative Biomedical Products, Bedford Mass.) in 0.1% BSA (endotoxin-low-Sigma, St. Louis) in Geys' Buffer (GIBCO) were added to the lower chamber. The chambers were separated by an 8.0 μm pore membrane (13 mm polyvinylpyrrolidone-free, Whatman, Clifton, N.J.). Membranes were pre-coated with 50 μg/ml collagen type I rat tail (Collaborative Biomedical Products) in 0.02N acetic acid at room temperature for 1 hr and then air dried. Membranes were re-hydrated in basic cell culture medium immediately prior to commencement of each experiment. The negative control in these experiments was 0.1% BSA in Geys' buffer. The chambers were incubated in a humidified atmosphere (37° C., 5% CO2) for 4 hr, the filters were removed, stained with DIFF-QUICK (Dade Behring, Düdingen, Switzerland) and mounted with Permount (FISHER SCIENTIFIC, Pittsburgh, Pa.). The filters were viewed under oil immersion (×400 magnification, BH-2, Olympus, Lake Success, N.Y.) and the total numbers of cells migrated through to the underside of the filter were counted in five different fields on each slide. Triplicates were set up for each experimental point.
To assess whether CAP37 had chemokinetic properties, various concentrations of CAP37 (0, 10, 100 and 1000 ng/ml) were added to the upper chamber as well as to the lower chamber (0, 10, 100, 500, 1000 ng/ml) and a checkerboard assay performed according to the methodology of Zigmond and Hirsch (46).

E-selectin = test: RT-PCR of adhesion molecule mRNA in HCEC; assay type: cell-based, human; conditions: CAP37 1 μg/ml, 0-24 hr
Procedure: (§1) Cultured HCEC were treated with CAP37 (1 μg/ml) for 0-24 hr at 37° C. Total cellular RNA was isolated from untreated and treated HCEC according to vendor specifications (TRIzol™, GIBCO BRL). After reverse-transcription of 5 μg of total RNA by SuperScript™ II RT (GIBCOBRL) the resulting single stranded cDNA was amplified by PCR (BIOMETRA TGRADIENT, Göttingen, Germany) using specific primers for ICAM-1 (([…] (SEQ ID NO:11) and […] (SEQ ID NO:12)); VCAM-1 (([…] (SEQ ID NO:13) and […] (SEQ ID NO:14)); PECAM-1 (([…] (SEQ ID NO:15) and […] (SEQ ID NO:16)); E-selectin (([…] (SEQ ID NO:17) and […] (SEQ ID NO:18)); and β-actin ((TACCTCATGAAGATCCTCA (SEQ ID NO:19) and TTCGTGGATGCCACAGGAC (SEQ ID NO:20))) synthesized by the Molecular Biology Resource Facility, University of Oklahoma Health Sciences Center. The thermocycler conditions for ICAM-1 and VCAM-1 were 95° C. for 5 min initially, with 30 cycles at 95° C. for 1 min, 58° C. for 45 sec, 72° C. for 1 min followed by a final extension at 72° C. for 7 min. The conditions for E-selectin were 95° C. for 5 min initially, with 30 cycles at 94° C. for 1 min, 58° C. for 1 min, 72° C. for 1 min followed by a final extension at 72° C. for 5 min. The conditions for PECAM-1 were 95° C. for 5 min initially, with 30 cycles at 95° C. for 45 sec, 60° C. for 1 min, 72° C. for 1 min followed by a final extension at 72° C. for 5 min.
(§2) Amplified DNA fragments were separated by electrophoresis on a 1% agarose gel and visualized by exposure to UV after ethidium bromide (0.5 μg/ml) staining. Expected sizes for ICAM-1, VCAM-1, PECAM-1, E-selectin and β-actin were 943 bp, 700 bp, 677 bp, 315 bp and 267 bp, respectively. To assess the integrity of the cDNA, primers for human β-actin were used.

ICAM-1 = test: RT-PCR of adhesion molecule mRNA in HCEC; assay type: cell-based, human; conditions: CAP37 1 μg/ml, beginning at 2 hr and lasting through 24 hr
Procedure: as §1, §2

PECAM-1 = test: RT-PCR of adhesion molecule mRNA in HCEC; assay type: cell-based, human; conditions: CAP37 1 μg/ml
Procedure: as §1, §2

VCAM-1 = test: RT-PCR of adhesion molecule mRNA in HCEC; assay type: cell-based, human; conditions: CAP37 1 μg/ml, 0-24 hr
Procedure: as §1, §2

B1: CAP37: Cationic Antimicrobial Protein of Mr 37 kDa; recombinant protein from human 293 cells, identical to native PMN-derived CAP37 (SEQ ID NO:1) (protein, listed as Homo sapiens)
chain: IVGGRKARPRQFPFLASIQNQGRHFCGGALIHARFVMTAASCFQSQNPGVSTVVLGAYDLRRRERQSRQTFSISSMSENGYDPQQNLNDLMLLQLDREANLTSSVTILPLPLQNATVEAGTRCQVAGWGSQRSGGRLSRFPRFVNVTVTPEDQCRPNNVCTGVLTRRGGICNGDGGTPLVCEGLAHGVASFSLGPCGRGPDFFTRVALFRDWIDGVLNNPGP
For B1, the Chemotactic activity ([1]; 2000 ng/ml) was “reduced but still measurably active”, the “Concentration range of maximal chemotactic activity” value ([1]; Boyden chamber) was 500 to 1000 ng/mL and the “Number of cells migrated” value ([1]; CAP37 above the filter 0 ng/ml, below the filter 10 ng/ml) was 28.56 ± 7.64. The “Number of cells migrated” value ([1]; CAP37 above the filter 0 ng/ml, below the filter 100 ng/ml) was 39.82 ± 6.20, the “Number of cells migrated” value ([1]; CAP37 above the filter 0 ng/ml, below the filter 500 ng/ml) was 68.89 ± 7.70 and the “Number of cells migrated” value ([1]; CAP37 above the filter 0 ng/ml, below the filter 1000 ng/ml) was 67.34 ± 8.42. The “Number of cells migrated” value ([1]; CAP37 above the filter 10 ng/ml, below the filter 10 ng/ml) was 27.63 ± 3.03, the “Number of cells migrated” value ([1]; CAP37 above the filter 10 ng/ml, below the filter 100 ng/ml) was 39.80 ± 6.93 and the “Number of cells migrated” value ([1]; CAP37 above the filter 10 ng/ml, below the filter 500 ng/ml) was 52.40 ± 15.76. The “Number of cells migrated” value ([1]; CAP37 above the filter 10 ng/ml, below the filter 1000 ng/ml) was 62.73 ± 9.66, the “Number of cells migrated” value ([1]; CAP37 above the filter 100 ng/ml, below the filter 100 ng/ml) was 36.63 ± 6.48 and the “Number of cells migrated” value ([1]; CAP37 above the filter 100 ng/ml, below the filter 1000 ng/ml) was 48.57 ± 15.58. The “Number of cells migrated” value ([1]; CAP37 above the filter 1000 ng/ml, below the filter 100 ng/ml) was 28.08 ± 2.76, the “Number of cells migrated” value ([1]; CAP37 above the filter 1000 ng/ml, below the filter 1000 ng/ml) was 38.13 ± 6.07 and the “Levels of migration relative to positive control” value ([1]; PDGF-BB 10 ng/ml as positive control) was “comparable to those obtained with the positive control, PDGF”. For the same molecule, the “mRNA expression of E-selectin” value (E-selectin) was “did not show increase in mRNA expression”, the ICAM-1 message (ICAM-1) was “clear upregulation of ICAM-1 message” and the “Time PECAM-1 message first detected after stimulation” value (PECAM-1) was 2 h. The “Time of maximum PECAM-1 message” value (PECAM-1) was 4 h, the PECAM-1 message (PECAM-1; transient, not detected after 6 hr) was “upregulated” and the “mRNA expression of VCAM-1” value (VCAM-1) was “did not show increase in mRNA expression”.
